What was measured:
[1] = test system: CBC (HapB/HapC/HapE core CCAAT-binding complex) (Aspergillus fumigatus); experiment: SPR; settings: SPR Biacore T200, 25 C; 10 mM phosphate pH 7.4, 2.7 mM KCl, 137 mM NaCl, 1 mM DTT, 0.005% surfactant P20, 10 ug/ml poly(dI-dC); biotin-DNA on streptavidin CM3 …
[2] = target: CBC (HapB/HapC/HapE core CCAAT-binding complex);HapX(24-158) (Aspergillus fumigatus;Aspergillus fumigatus) (UniProt Q4WER3); experiment: SPR; settings: SPR Biacore T200, 25 C; 10 mM phosphate pH 7.4, 2.7 mM KCl, 137 mM NaCl, 1 mM DTT, 0.005% surfactant P20, 10 ug/ml poly(dI-dC); biotin-DNA on streptavidin CM3 …
[3] = target: Aspergillus fumigatus core CCAAT-binding complex (HapB(230–299), HapC(40–137), HapE(47–164)) (Aspergillus fumigatus); experiment: SPR; Biacore T200, 25°C; biotinylated 37-bp cccA promoter duplex (full motif) on streptavidin-coated CM3 chip; CBC injected, HapX(24–158) co-injected on preformed binary CBC/DNA complexes in the steady-state phase; 10 mM phosphate pH 7.4, 2.7 mM KCl, 137 mM NaCl, 1 mM DTT, 0.005% P20, 10 μg/ml poly(dI-dC); 1:1 model with mass transport term

Substance | Kd [1] | Kd [2] | KD on CBC-coated DNA (preformed CBC/DNA complex, 37-bp cccA promoter duplex) [3] | stoichiometry N (HapX chains per CBC) [3]
AAATCCACCAATCAACGCCTCCGTGATTGTCAGCAAT (double strand) [cccAp-369-37] | 0.7 nM | 1.97 nM | – | –
Aspergillus fumigatus HapX(24–158) (from UniProt Q4WER3 24-158) (domain or fragment) | – | – | 1.97 nM | 2

From article PMC4232046
